Numbering of substitutions follows the chain as printed.
B1: humanized TNT005 variant VH variant 2+Vk variant 2 (antibody, V domains shown)
VH: EVQLVQSGAEVKKPGASVKLSCTASGFNIKDDYIHWVKQAPGQGLEWIGRIDPADGHTKYAPKFQVKATITADTSTNTAYLELSSLRSEDTAVYYCARYGYGREVFDYWGQGTTVTVSS
VL: DIVLTQSPDSLAVSLGERATISCKASQSVDYDGDSYMNWYQQKPGQPPKILIYDASNLESGIPARFSGSGSGTDFTLTISSLEPEDFAIYYCQQSNEDPWTFGGGTKVEIK
notes: also called VH variant 2 + VL variant 2
B2: humanized TNT005 variant VH variant 2+Vk variant 5 (antibody, V domains shown)
VH: B1 VH
VL: B1 VL with I50L, I89V
notes: also called VH variant 2 + VL variant 5
B3: humanized TNT005 variant VH variant 5+Vk variant 1 (antibody, V domains shown)
VH: B1 VH with E1Q, L20V, T23A, K38R, A68V, N77S, L81M
VL: B1 VL with P44T, P84E
notes: also called VH variant 5 + VL variant 1

target: T1, activated human complement C1s (human, UniProt P09871 16-688); test: cell-based or functional assay
T1 sequence: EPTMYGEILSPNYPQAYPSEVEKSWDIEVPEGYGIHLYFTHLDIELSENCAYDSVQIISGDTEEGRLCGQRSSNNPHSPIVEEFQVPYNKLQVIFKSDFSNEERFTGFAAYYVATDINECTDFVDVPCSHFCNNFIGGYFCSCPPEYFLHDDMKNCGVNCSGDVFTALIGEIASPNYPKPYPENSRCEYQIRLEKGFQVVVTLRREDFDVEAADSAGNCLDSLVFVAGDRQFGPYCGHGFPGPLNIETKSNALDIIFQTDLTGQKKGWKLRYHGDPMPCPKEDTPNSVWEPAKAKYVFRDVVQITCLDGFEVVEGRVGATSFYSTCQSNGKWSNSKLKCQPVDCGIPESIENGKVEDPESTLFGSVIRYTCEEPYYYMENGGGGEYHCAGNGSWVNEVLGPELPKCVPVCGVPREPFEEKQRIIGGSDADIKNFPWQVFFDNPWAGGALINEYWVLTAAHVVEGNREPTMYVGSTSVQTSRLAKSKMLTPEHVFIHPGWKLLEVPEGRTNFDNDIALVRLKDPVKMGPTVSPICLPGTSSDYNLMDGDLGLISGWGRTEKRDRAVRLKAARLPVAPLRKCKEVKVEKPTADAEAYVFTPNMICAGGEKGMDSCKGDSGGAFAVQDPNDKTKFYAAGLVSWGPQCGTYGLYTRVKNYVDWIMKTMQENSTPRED

Q: For B1, which “IC50 of classical complement pathway inhibition (commercial CP activation assay)” value is on record?
A: 1.26 nM

Q: How did the “IC50 of classical complement pathway inhibition (commercial CP activation assay)” value turn out when B2 was run?
A: 1.27 nM

Q: B3 was tested. Which “IC50 of classical complement pathway inhibition (commercial CP activation assay)” value did it give?
A: 1.06 nM

target: T1, activated human complement C1s; test: direct binding of antibody to activated C1s (aC1s); assay format not stated

Q: For B1, which EC50 is on record?
A: 0.134 nM

Q: How did the EC50 turn out when B2 was run?
A: 0.124 nM

Q: Which EC50 does the source give for B3 here?
A: 0.113 nM

target: T1, activated human complement C1s; test: competition binding to active C1s; competitor 50 pM biotinylated TNT005 (Biot-005)
Experimental: All 15 combinations (VH variant 1+Vk variant 1; VH variant 1+Vk variant 2; VH variant 1+Vk variant 5; VH variant 2+Vk variant 1; VH variant 2+Vk variant 2; VH variant 2+Vk variant 5; VH variant 3+Vk variant 1; VH variant 3+Vk variant 2; VH variant 3+Vk variant 5; VH variant 4+Vk variant 1; VH variant 4+Vk variant 2; VH variant 4+Vk variant 5; VH variant 5+Vk variant 1; VH variant 5+Vk variant 2; VH variant 5+Vk variant 5) were produced. Each humanized variant was tested for the ability to compete with biotinylated TNT005 for binding to active C1s.

Q: B1 was tested. Which IC50 did it give?
A: 0.158 nM

Q: B2 was tested. Which IC50 did it give?
A: 0.168 nM

Q: How did the IC50 turn out when B3 was run?
A: 0.0449 nM

target: T1, activated human complement C1s; test: kinetic characterization of binding to active human C1s; instrument not stated; column head kdis

Q: For B1, which koff is on record?
A: 0.000172 s⁻¹

Q: Which koff does the source give for B2 here?
A: 0.000166 s⁻¹

Q: How did the koff turn out when B3 was run?
A: 0.000471 s⁻¹

target: T1, activated human complement C1s; test: kinetic characterization of binding to active human C1s; instrument not stated

Q: With B1 as the binder, how does the Kd read?
A: 0.206 nM

Q: And the kon?
A: 835000 M⁻¹ s⁻¹

Q: With B2 as the binder, how does the Kd read?
A: 0.208 nM

Q: And the kon?
A: 798000 M⁻¹ s⁻¹

Q: How did the Kd turn out when B3 was run?
A: 0.457 nM

Q: What about the kon of the same binder?
A: 1.03e+06 M⁻¹ s⁻¹

Source: patent US20200405852A1 (BIOVERATIV USA, published 2020)
